According to the supplement of paper PMC10567573:

B1: KLHL12 (parent)
chain: SMTTPRCYVGATVLRGRLYAIAGY
B2: BRF1 (parent)
chain: FVESSGGGSSAVGQFVSLDGAGKT

Variants of: B1
Assay: protein stability index of a GFP-peptide fusion (GPS, HEK-293T) (PSI 1-6); higher = more stable
Settings: c terminus: a fixed tail appended
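Note: lentivirally expressed fusions sorted by FACS into six bins by GFP to DsRed ratio, PSI derived from sequencing read proportions per bin multiplied by bin number.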

Protein stability index: each site, then its substitutions
R15: G 2.98, H 2.64, I 2.18, V 3.43, D 2.78, W 1.66, Q 1.46, S 1.63, P 1.88, Y 3.51, E 2.11, L 2.21, T 2.62, A 2.33, C 3.81
T12: P 1.94, I 2.46, F 2.4, C 2.41, K 2.48, A 1.68, R 2.21, Q 1.92, L 2.77, V 3.43, D 1.85, E 1.1, M 3.47, S 1.63, G 1.18
G10: E 3.01, N 1.95, Y 2.21, M 2.75, D 1.1, W 1.11, T 3.52, S 1.02, P 1.91, F 1.36, K 2.11, C 2.8, A 1.29
V13: R 1.74, F 1.85, E 2.69, A 1.83, Q 2.85, M 1.73, K 1.96, L 3.54, T 1.03, P 1.95, H 3.25, C 1.58, N 1.81
G16: D 1.58, E 1.25, I 3.21, W 1.48, K 1.77, T 2.04, S 2.46, R 2.39, P 2.19, N 1.98, L 2.05, F 2.91, H 1.98
G23: S 2.08, W 2.54, K 1.35, N 1.78, Q 3.57, E 2.19, R 1.97, L 3.25, D 1.64, A 3.75, F 2.6, P 2.39, T 2.54, I 1.86
C7: H 1.16, R 2.43, E 1.47, D 2.41, N 1.62, M 4.32, V 2.13, T 2.16, S 3.15, Q 1.71, L 3.82, F 3.95, A 1.32, G 3.82, K 2.18
R6: A 1.73, L 1.18, T 1.53, G 1.27, I 1.55, S 2.42, D 2.56, Q 2.54, P 1.83, K 2.04, N 2.26
A20: V 3.5, I 2.3, G 2.11, Y 2.41, K 3.06, Q 2.45, T 1.01, P 2.26, D 1.48, M 2.23, N 1.72, H 1.18, R 1.34, E 1.76
R17: D 1.88, S 3.1, M 3.27, C 2.04, A 1.73, V 2.35, Y 2.26, E 1.68, T 1.92, N 2.17, P 2.42, H 2.17, Q 1.85, F 3.17, G 2.27
L14: Y 3.61, I 1.99, N 1.17, S 1.9, C 2.48, H 1.62, E 1.93, F 1.77, D 1.58, W 3.9, R 1.99, T 2.5, K 1.93
T3: C 2.75, S 2.31, F 1.62, P 1.59, Q 2.67, K 2.08, V 2.36, N 1.46, L 2.72, A 2.97
P5: H 4.85, Q 2.71, Y 2.19, I 1.79, W 2.99, M 2.98
I21: P 2.29, R 1.93, W 2.43, C 1.37, A 2.65, S 1.2, H 1.59, T 1.37, D 1.46, G 1.78, E 1.78, L 2.73, V 2.33, Q 1.67
S1: M 1.89, G 2.39, A 1.85, F 2.24, Q 1.39, D 2.24, K 1.92, R 3.81, C 3.04, P 3.62, L 3.32, N 1.9
L18: Y 2.68, I 1.68, N 2, S 1.36, D 1.94, V 2.08, G 1.7, C 2.93, E 1.95, H 2.1, F 2.67, P 1.87, K 1.75, R 1.9, M 1.72
M2: H 1.93, P 1.33, A 2.19, R 2.35, V 1.97, I 1.65, S 3.02, E 1.68, D 2.48, L 2.64, Q 1.48, T 2.22, N 2.96, F 3.06
T4: V 2.65, F 2.12, A 1, K 2.69, M 3.38, R 2.16, D 2.27, N 3.79, I 2.44, S 2.3
Y19: R 1.77, K 1.79, I 3.51, A 1.65, L 2.15, C 2.91, T 2.02, E 2.19, S 2, F 2.02, D 1.99, G 2.81
Y24: S 1.27, F 3.7, Q 2.45, A 1.48, G 2.13, I 2.45, W 2.45, H 1.43, P 2.64, C 1.82, N 1.75, R 1.95, T 1.82, L 2.46, M 3.33, K 2.17, D 2.03
V9: A 2, R 3.6, N 2.26, H 2.62, M 2.43, W 2.17, E 2.3, L 3.27, Y 3.18, G 1.93, T 1.74, I 2.74, P 1.7, Q 1.96
A22: V 1.94, T 1.69, G 1.24, N 1.3, I 3.06, F 2.3, Q 1.52, P 2.08, S 1.26, R 2.86, K 1.52, E 2.3, M 2.01, C 3.97
Y8: T 2.12, M 1.57, Q 2.18, L 2.48, K 2.88, I 3.73, R 1.21, F 2.98, P 1.71, S 2.77, W 1.82, N 1.5, E 1.06, H 1.74, A 2
A11: Y 2.99, R 3.02, P 2.17, N 1.5, K 2.19, S 1.04, H 1.8, F 2.01, E 1.5, C 2.29, G 1.33, D 1.42, M 2

Variants of: B2
Assay: as above
Settings: c terminus: a fixed tail appended

Protein stability index, by site and new letter:
F1: R 5, T 5.09, A 4.71, L 4.89, G 5.26, N 5.17, H 4.71, M 4.99, Q 5.13, E 5.04, C 4.65, I 4.34, V 4.82, D 5.32, K 4.59, P 5.24, S 5.15
